Data on 24 sequences can be found in the DeepSol protein solubility set.

This data set in a line: soluble on expression in E. coli; label from the status in PepcDB or PDB records.
“MHHHHHHSSGVDLGTENLYFQSMAWVIDKYGKNEVLRFTQNMMMPIIHYPNEVIVKVHAASVNPIDVNMRSGYGATALNMKRDPLHVKIKGEEFPLTLGRDVSGVVMECGLDVKYFKPGDEVWAAVPPWKQGTLSEFVVVSGNEVSHKPKSLTHTQAASLPYVALTAWSAINKVGGLNDKNCTGKRVLILGASGGVGTFAIQVMKAWDAHVTAVCSQDASELVRKLGADDVIDYKSGSVEEQLKSLKPFDFILDNVGGSTETWAPDFLKKWSGATYVTLVTPFLLNMDRLGIADGMLQTGVTVGSKALKHFWKGVHYRWAFFMASGPCLDDIAELVDAGKIRPVIEQTFPFSKVPEAFLKVERGHARGKTVINVV”: the “soluble on expression in E. coli” value was “soluble”.
Take “MHHHHHHSSGVDLGTENLYFQSMPRIDADLKLDFKDVLLRPKRSSLKSRAEVDLERTFTFRNSKQTYSGIPIIVANMDTVGTFEMAAVMSQHSMFTAIHKHYSLDDWKLFATNHPECLQNVAVSSGSGQNDLEKMTSILEAVPQVKFICLDVANGYSEHFVEFVKLVRAKFPEHTIMAGNVVTGEMVEELILSGADIIKVGVGPGSVCTTRTKTGVGYPQLSAVIECADSAHGLKGHIISDGGCTCPGDVAKAFGAGADFVMLGGMFSGHTECAGEVIERNGRKLKLFYGMSSDTAMNKHAGGVAEYRASEGKTVEVPYKGDVENTILDILGGLRSTCTYVGAAKLKELSRRATFIRVTQQHNTVFS”: the “soluble on expression in E. coli” value is reported as “soluble”.
On to “MHHHHHHSSGVDLGTENLYFQSNAMKIDYLTLFPEMFDGVLNHSIMKRAQENNKLQINTVNFRDYAINKHNQVDDYPYGGGQGMVLKPEPVFNAMEDLDVTEQARVILMCPQGEPFSHQKAVELSKADHIVFICGHYEGYDERIRTHLVTDEISMGDYVLTGGELPAMTMTDAIVRLIPGVLGNEQSHQDDSFSDGLLEFPQYTRPREFKGLTVPDVLLSGNHANIDAWRHEQKLIRTYNKRPDLIEKYPLTNADKQILERYKIGLKKG”, for which the “soluble on expression in E. coli” value was “soluble”.
With “MHHHHHHSSQEVGEHREITAEETAELLKNSHSVIITPGYGMAVAQAQYPVAEITEKLRARGINVRFGIHPVAGRLPGHMNVLLAEAKVPYDIVLEMDEINDDFADTDTVLVIGANDTVNPAAQDDPKSPIAGMPVLEVWKAQNVIVFKRSMNTGYAGVQNPLFFKENTHMLFGDAKASVDAILKAL”, the “soluble on expression in E. coli” value is “soluble”.
Consider “MHHHHHHVSLDKAVIARLRKGGEEFEVLVDPYLARDLKEGKEVNFEDLLAAEEVFKDAKKGERASVDELRKIFGTDDVFEIARKIILEGEVQITAEQRREMLEAKRKQIINFISRNTIDPRTNAPHPPSRIERALEEAKVHIDIFKSVEAQVKDIVKALKPILPLKFEEMEIAIKIPPEHTGRAISALYNFGGVTREEWQRDGSWICVMRIPSGMYGDLMDLLGKVAKGEALTKVLRRIG”, for which the “soluble on expression in E. coli” value is reported as “soluble”.
With “MHIIDSHCHLNFEGLKERLPEVLSNMEANGVGQALAISVSRESFSEVFAVAEAHEHIYCTIGVHPDSREAEEFSIAEMVEAAAHPKVVGIGETGLDYYWCKGDLSWQHKRFADHIEAANQTGLPVIVHTRDAAADTLAILKECKTNSGVIHCFSEDTAFARAAMDLGLYISFSGIVTFKNAPLVQEAAKYVPDDRILVETDAPFLAPVPKRGRQNEPAFVRHTAEHIAKLRNQTLEQVAAYTTENFYRLFKKVPDMRAVLEHHHHHH”, the “soluble on expression in E. coli” value is given as “not soluble”.
Consider “MHKAILNSDLIATKAGDVTVYNYDGETREYISTSNEYLAVGVGIPACSCLDAPGTHKAGYAICRSADFNSWEYVPDHRGETVYSTKTGESKEIKAPGDYPENTTTIAPLSPYDKWDGEKWVTDTEAQHSAAVDAAEAQRQSLIDAAMASISLIQLKLQAGRKLTQAETTRLNAVLDYIDAVTATDTSTAPDVIWPELPEA”, for which the “soluble on expression in E. coli” value is “not soluble”.
With “MHKLIIKYNKQLKMLNLRDGKTYTISEDERADITLKSLGEVIHLEQNNQGTWQANHTSINKVLVRKGDLDDITLQLYTEADYASFAYPSIQDTMTIGPNAYDDMVIQSLMNAIIIKDFQSIQESQYVRIVHDKNTDVYINYELQEQLTNKAYIGDHIYVEGIWLEVQADGLNVLSQNTVASSLIRLTQEMPHAQADDYNTYHRSPRIIHREPTDDIKIERPPQPIQKNNTLEHHHHHH”, the “soluble on expression in E. coli” value is “soluble”.
On to “MHKNLFHWLMERGYQVLVEKEVAITLELPFEHLATLEEIGHRAQLAIVIGGDGNMLGRARVLAKYDIPLIGINRGNLGFLTDIDPKNAYSQLEACLERGEFFVEERFLLEAKIERASEIVSTSNAVNEAVIHPAKIAHMIDFHVYINDKFAFSQRSDGLIVSTPTGSTAYSLSAGGPILTPNLNAIALVPMFPHTLTSRPLVVDGDSKISIRFAEHNTSQLEVGCDSQITLPFTPDDVVHIQKSEHKLRLLHLKIIIITMC”, for which the “soluble on expression in E. coli” value is “soluble”.
For the sequence “MHLSRCRKCGRVMKGERIDPYRVKLTCSCGFSDFRTMTEKVKTVNPFFQKGGFSPLLESERGKMVLTMQRANREHLEIISLEEISMLVSSDFDLPEVLQHVTAKVATQLKVSVCNIYLREGDEVVLAATHGFDPAFIGKIRIKIGDGITGSVARDGQYISLSRASQDPRYRYFPELQEEKYNSMLSFPIGDKKEVYGVINLNTTSIRSFHEDEIYFVSIIANLILTAIKLRQQVASSRKAAEASA”, the “soluble on expression in E. coli” value is on record as “not soluble”.
For the sequence “MHNNENVSGISAYLLGLIIGDGGLYKLKYKGNRSEYRVVITQKSENLIKQHIAPLMQFLIDELNVKSKIQIVKGDTRYELRVSSKKLYYYFANMLERIRLFNMREQIAFIKGLYVAEGDKTLKRLRIWNKNKALLEIVSRWLNNLGVRNTIHLDDHRHGVYVLNISLRDRIKFVHTILSSHLNPLPPE”, the “soluble on expression in E. coli” value was “soluble”.
In the case of “MHNSTGRYVLGMEVMTPTGMNLDIATSVANADLARFDQVVGEDGIERFTFAKIEYTKESDLFEKTCELTANLLDSLLTQLPRS”, the “soluble on expression in E. coli” value was “not soluble”.
“MHPTYSAVQARLLEANRLSPELLAKSLCIIGAHHVDYADIYCQRTAYESWHLEEGIVKSGSFQINQGVGVRAVSGDKTAFAYADSLCIDSINRSARAVRAIGAAGGKVSAKMPSETRGKPVCSASDPIAGLDSAAKVALLNKVEAIAKAADPRIVQVMAGLTCEYDMVYLARLDGKHAADIRPMVRLNVTVIAKQGERREQGSAGGGGRYDLAYFDENLVHRFVDAAVKQALTNLESRPAPAGEMTVVLGNGWPGVLLHEAVGHGLEGDFNRKGTSVFSGRIGERVAAKGVTVVDQGDIAGRRGSLNIDDEGNETRRTVLIEDGILVGYMQDETNARLTGTQSTGNGRRESYASAPMPRMTNTFMENGSYEPEEIIASIDKGIYAVNFGGGQVDITSGKFVFSASEAWWVEGGRLQYPVKGATIIGNGPEVLKHVSMIGNDTALDSGVGVCGKEGQSVPVGVGQPTLRIDAGLTVGGSAI”: the “soluble on expression in E. coli” value is reported as “not soluble”.
Consider “MHRNYFKKKQNLIFSEKQQSVEKYGDDWVHHFHTANARETFGKKIFGIFFPRNLSIERTRETPTAKEGDLLHNGNY”, for which the “soluble on expression in E. coli” value was “not soluble”.
In the case of “MHSPTPFALAIFLGILYHIPTFSNQRSIMNNLELEQLINQKLSSDKINDYAPNGLQVEGKTEIKKIITGVTASQALINYAISQNADAILVHHGYFWKSETPCIRGMKGKRIKALLVNDINLYGYHLPLDVHPELGNNAQLAKLLDIENLQPLEKGSVSIPVWGELKEPMTGKDFAEKIEKVLNRKPLICIENGPHLIRKIGICTGGGQGYIDLAAEQGCDAFITGEVSEQTIHSAREQGLYFFSAGHHATERYGIKALGEWLAKEYGFDVEFKDIDNPALEHHHHHH”, the “soluble on expression in E. coli” value is reported as “soluble”.
In the case of “MHSQVFSAFPHSLPLRSWVNVIKNPQFVFDIHKGSITDACLSVVAQTFMDSCSTSEHRLGKDSPSNKLLYAKDIPSYKSWVERYYADIAKLPAISDQDMNAYLAEQSRLHAVEFNMLSALNEIYSYVSKYSEELIGALEQDEQARRQRLAYKVEQLINAMSIESLEHHHHHH”, the “soluble on expression in E. coli” value is “not soluble”.
For “MHTLLLLAALSNQITFTTTQQGDIYTVIPQVTLNEPCVCQVQILSVRDGVGGQSHTQQKQTLSLPANQPIELSRLSVNISSEDSVKIIVTVSDGQSLHLSQQWPPSAQ”, the “soluble on expression in E. coli” value was “not soluble”.
As for “MHYDAIVVGGGMVGAAAALGLAQRGFQVAVIEQEMPTPFDATSPPDLRISAIGYASVALLKELDAWPRVQQMRSAPYRRLETWEWANARVVFDAADIHLPELGFMVENRVLQLALWESLQEEERCRCYCPATPQGLQRTDDGWCLQLADGQKLTASLVIGADGANSQVRQWAGIGISGWQYRQSCMLIGVETSQPQQDVTWQQFTPSGPRAFLPLFDQWGSLVWYDSPQRIRQLQAMPLAQLDKEIAAAFPERLGTVKVISAGSFPLVRRHAQTYIKPGLVLLGDAAHTINPLAGQGVNLGYRDVEALLDVLINARNAGEQWASERVLRRYQCRRMPDNLMMQSGMDLFYSAFSNALPPLSFARNMALMVAQRAGVLKQRALKYAIGVLEHHHHHH”, the “soluble on expression in E. coli” value is reported as “soluble”.
With “MHYFSIHDQSGRHIGFFILLADDESEARPQSGRFAVKLEGGMENHVLSPFGQTEIPQYWRVVKDRIELFFDEAPVGTLRNEYLTVSGQTFVLNDLTGNM”, the “soluble on expression in E. coli” value was “not soluble”.
Consider “MHYSYLEPGLHAELAAITPDEAVAHLRNHLGNLLLDPAVTAAYINRLGVLTPEETTPSTRAWLTYLLVRYCDLLPLDLAAQRILAQVTGNAAPHLRDLERCAIPDPIERKLERLGAGEDSERNRAMLLALLHEYPYSPAIMERLMTVELALDIPVGGEWLPSVRPPAGLLRPLHERLFIHAMMQGDTERALQHAAACVPDNPSPHLLNHLAELHARLGDTQQALNLYGASLEADPLQHPVRLRMEALAKPPRAHADALHHRIAICLYSFNKAELLERTLSSLAASQTGEAHILVLLNGCTDDSATRVAAVNERLFNGRLEVIDMPINIGAPAARNWLLAKQTVREADFVAFLDDDVDVPAAWLPRLVGNLEEHPGAGVAGTRVRNPGDVPRLQYLYRNISVARPGLIRLSLDTPTLHHDTGFYDFTRSTTSVMGCCHVFTRRALDEVPAFDLRFSPSQMDDIAHDIDLALAGFDVLYTGDVVCVHHQMSGLGRANATDWKRFGNVAGNDVKFYYRFADRLDALGRLNNLGFMPDMPPALEHHHHHH”, for which the “soluble on expression in E. coli” value is listed as “soluble”.
Consider “MIAAYENSKWEPVKWENDMHCAVKIQDKNQWRRGQIIRMVTDTLVEVLLYDVGVELVVNVDCLRKLEENLKTMGRLSL”, for which the “soluble on expression in E. coli” value was “soluble”.
With “MIAGYIMAAENQTLNQWTINQLGITRGDSILEVGFGPGYCMQQMLKREKDVHLHGIDVSEAMLKLAARRVKPKGVRLIQGSIETFPLPASFYDKVISVNNYTIWNDQTKGIKQIYRALKPGGKAAITMQPREADASPEKTKSFGRQMIADFKAAGFEDIDIQFKNIKPELSVCATAKKPATLEHHHHHH”, the “soluble on expression in E. coli” value is reported as “not soluble”.
To “MIAPRLVSIIIPTLNEEDAIAPTLRQARRQEGPVEILVADGGSTDDTRSVAQARGATVLQAPRGRAPQMNHGADCSSGDILLFLHADTRLPPNGLSRIRRALAAPDAIAGTFRLRFDDPTPLLRFYAWCTRWPWIRLCFGDRGQFVERSAFEAVGGFPDWPLFEDLELAARLQGHGRFRFLDAAVTTSARRFRRHGPLRQQLLNLYLWGHYLWGTDPDLLASLYPDRLGPVDQQPRSLEHHHHHH” belongs “soluble”.
In the case of “MIAWYGMALDQAVVNRPVKAKLYSKIVDSVECTACSRYCRLKPGKTGFCGVRKNIDGDLYLLVYGLPAAINVDPIEKKPVLHMYPGARIFSLSTVGCSFACQYCQNYDISQRRTITGYHYDPEEIVEEALSMGCQGIAYTYNEPSIFMEYAHDIGVIARRHGLINIFVTNGFETPEAIDYARDFLDAATVDFKGNASDEFYRKYISVPSARPIFETLANLKSAGIHVEVTDLVVPEVGDRLEDARTMLERIMDILGEYVPISFLRFHPDYRMMDLPDTPVETLRKHHDLAVSMGFKYVYIGNVPGYGENTYCPNCGNLLIERFVFSSKVIGLDRNGRCKKCGYDPQIPLMKEKRADYIS”, the “soluble on expression in E. coli” value is given as “not soluble”.
